Experimental data from the supplement of paper PMC10567573.

B1: CAMK2D (parent)
chain: IVRLHDSISEEGFHYLVFDLVTGG

Variants of: B1
Assay: protein stability index of a GFP-peptide fusion (GPS, HEK-293T) (PSI 1-6); higher = more stable
Conditions: c terminus: a fixed tail appended
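Also: lentivirally expressed fusions sorted by FACS into six bins by GFP to DsRed ratio, PSI derived from sequencing read proportions per bin multiplied by bin number.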

Protein stability index, by site and new letter:
F13: Y 3.07; E 2.6; L 2.02; P 1.08; Q 1.37; T 3.34; D 1.91; A 1.76; K 1.43; H 1.62; N 2.2; W 2.18; M 2.71; S 3.27
V21: Q 2.38; K 1.57; M 1.93; P 2.41; A 1.11; Y 3.1; H 2; W 4.26; G 3.19; D 3.2; T 2.88; N 4.11; L 2.71; F 3.33
T22: I 2.22; Y 3.62; C 3.58; N 4.16; E 2.96; K 3.31; S 2.67; H 2.24; M 2.02
G12: S 3.25; V 3.05; I 2.16; E 2.48; W 3.89; A 2.25; Y 3.96; P 2.31; N 2.04; T 3.32
D6: N 1.95; C 2.66; M 2.4; T 4.86; P 4.25; A 3.03
I8: P 3.04; K 2.4; Y 3.84; R 1.65; C 2.85; A 2.21; E 1.44; Q 1.69; H 3.29; S 3.33; N 3.02; G 1.64; T 2.61
Y15: P 1.75; N 2.46; D 1.89; F 2.63; A 2.98; H 1.2; Q 1.58; E 1.7; K 2.76; R 1.21; S 1.06; I 2.54; W 2.7
F18: V 4.52; H 1.63; R 1.79; P 2.13; D 2.67; K 2.17; G 2; T 2.1; Q 1.33; L 2.51; N 2.84; S 2; A 2.33; C 1.32; E 2.33; Y 1.43
V2: P 1.46; T 2.52; Y 3.12
E10: M 2.53; A 3.84; R 2.65; N 4.11; H 3.04; F 2.4; S 2.15; Y 2.83; K 2.7; T 3.29; I 3.06
H5: S 3.02; C 3.23; P 3.91; N 2.33; K 4.72; Y 3.23; I 3.99; D 2.94; F 3.15; R 2.39
V17: G 3.58; E 1.69; I 2.58; F 2.39; A 2.78; T 1.75; N 1.85; H 2.93; R 2.13; W 2.39; Y 3.27; S 3.19; P 2.04; K 2.56; D 1.46; L 1
E11: F 3.42; Y 3.26; Q 2.06; T 2.08; R 3.9; P 2.13; I 1.56; N 3.39; L 3.7; D 3.32; A 2.79
S7: M 3.09; H 3.68; W 2.25; Q 2.4; Y 3.15; E 2.24; L 2.56; N 3.29; A 3.35; G 1.96; T 3.19
L16: C 2.49; N 1.5; T 1.21; G 2.17; Y 2.98; S 1.55; F 2.76; Q 2.04; P 1.74; E 1.57; H 1.39; D 1.63; A 3.09; R 2.51; I 2.66
R3: Q 2; C 2.03; G 2.41; E 2.25; H 3.12; V 2.23; S 1.57; Y 2.58; P 2.28
H14: E 1.83; D 1.85; P 2.79; A 2.32; K 2.2; C 2.29; M 2.25; Y 2.71
G24: E 4.45; M 3.78; C 2.4; Y 3.88; K 2.87; V 3.44; P 3.4; Q 2.89; W 2.09; S 2.88; R 2.09; L 2.13; F 1.57; D 2.26
L4: K 3.71; N 1.87; W 1.57; E 1.69; A 2.4; H 2.53; D 1.8; F 2.4; T 1.29; Q 1.69; P 2.39; S 1.9; R 1.62
D19: A 1.87; K 2.88; W 1.91; M 3.68; I 2.4; G 2.15; Y 3.34; V 2.75; S 4.24; T 1.62; Q 2.4; L 2.47; P 3.21
L20: D 1.67; R 2.04; A 2.13; V 3.87; Y 2.67; N 2.25; P 1.86; E 2.05; H 1.35; G 1.93; K 2.41; T 2.27; S 1.45; C 3.9; Q 2.52; I 3.09; M 3.24
S9: D 2.36; Q 4.38; M 3.39; G 1.99; K 2.84; Y 3.58; P 5.65; L 4.27; F 1.94; N 2.94; E 3.35
G23: N 2.49; P 3.1; V 2.43; Y 4.01; R 2.53; E 3.03; H 2.88; T 3.2; W 2.89; L 2.92; C 4.08; I 2.57; A 3.32; K 2.19; Q 2.59
